Experimental data: patent publication JP2001526021A

Biological target: ブラジキニン受容体 (bradykinin receptor) on SV-T2 cells
Test: cell-based or functional assay

Question: Which PGE2合成 (PGE2 synthesis in SV-T2 cells, ELISA) does the source give for ブラジキニン (bradykinin) (peptide) here?
Answer: The PGE2合成 (PGE2 synthesis in SV-T2 cells, ELISA) was 4 倍 (fold).

Question: And the PGE2合成 (PGE2 synthesis in SV-T2 cells, Fig. 7C)?
Answer: Its PGE2合成 (PGE2 synthesis in SV-T2 cells, Fig. 7C) is 4 倍 (fold).
